Consider three molecules from US20250243243A1 (HONG KONG UNIVERSITY OF SCIENCE AND TECHNOLOGY, published 2025).

A word on the Kd: it is the equilibrium constant for the complex coming apart.

Where no end group is shown, it is not given here.

One test addresses T1, GST (UniProt P08515 1-218 = GST).
T1 construct: Control protein purified from E. coli; also called GST alone; purified GST
Kind of test: pull-down on beads carrying peptides of the predicted first luminal loop of SURF4, purified prey, anti-GST immunoblot.

For the next test, the target named is T2, CW peptides (KRRHPKKC) (C-terminal cysteine added for coupling to thiopyridone-Sepharose 6B beads (pull-down)).
T2 construct: CW motif of Shh (mouse residues 33-39, human 32-38) plus an added C-terminal Cys; On beads in the pull-downs, free in solution in ITC; also called Cardin-Weintraub peptide; synthetic CW peptides
T2 peptide: KRRHPKKC
Kind of test: ITC, 500 µM CW peptide injected into 50 µM GST-SURF4 (49-60), one set of sites model.

A further test concerns the target T3, ShhN^1-198-HA (mouse, UniProt Q62226 25-198).
T3 construct: also called ShhN-HA; not shown: C-terminal 3xHA tag
Kind of test: quantification of the co-immunoprecipitation (n=3). From the text: FIG. 3D. […] FIG. 3E. […] FIG. 3F. […] FIG. 3G. […] FIG. 3O.

T3 sequence (Q62226 25-198): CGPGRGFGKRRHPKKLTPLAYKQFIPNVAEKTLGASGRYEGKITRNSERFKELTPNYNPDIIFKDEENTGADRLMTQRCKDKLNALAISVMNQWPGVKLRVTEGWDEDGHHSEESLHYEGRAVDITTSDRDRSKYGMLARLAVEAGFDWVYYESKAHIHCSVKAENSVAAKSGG
T1 sequence (P08515 whole entry): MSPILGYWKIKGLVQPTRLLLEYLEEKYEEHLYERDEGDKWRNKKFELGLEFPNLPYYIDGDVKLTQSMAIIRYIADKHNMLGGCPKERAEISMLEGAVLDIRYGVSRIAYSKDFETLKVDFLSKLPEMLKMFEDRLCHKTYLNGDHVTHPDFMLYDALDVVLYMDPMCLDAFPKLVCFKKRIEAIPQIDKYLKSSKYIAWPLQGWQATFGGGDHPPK
Description for CW peptides (KRRHPKKC): We utilized a commercial isothermal titration calorimeter (PEAQ-ITC system, MicroCal, Malvern Panalytical, United Kingdom) to perform titration experiments. […] During each ITC experiment, 19 injections of CW peptide into the calorimetric cell were carried out while duration of each injection was 4 s and the time between the injections was 150 s. The volume of each injection was 2 μL and the stirring speed was maintained at 750 rpm. Control experiments such as peptide to buffer and buffer to protein titrations were also done to account for non-specific interactions and heat of dilution. The binding constant (Kd) was derived by fitting the data with one set of site model using the MicroCal PEAQ-ITC analysis software.

B1: SURF4 luminal peptides (SEQRDYIDTTWNC) (peptide)
peptide: SEQRDYIDTTWNC
modifications: not fully specified (residue 13)
notes: Immobilised on beads as bait; also called SURF4^49-61 peptides; SURF4 peptide
Take B1: in the test with GST, the binding result is recorded as “no binding”.

B2: GST-SURF4^49-60 (other)
chain: {GST}-SEQRDYIDTTWN
modifications: also: GST tag linker not given here
notes: Purified from E. coli; also called N-terminal GST-tagged SURF4^49-60; GST-tagged SURF4^49-60; not shown: glutathione S-transferase (GST) tag, N-terminal
In the test with CW peptides (KRRHPKKC), B2 yielded a Kd of 2350 nM.

B3: SURF4^ED-AA-Myc (receptor)
chain: GQNDLMGTAEDFADQFLRVTKQYLPHVARLCLISTFLEDGIRMWFQWSAQRAYIATTWNCGYLLASSFVFLNLLGQLTGCVLVLSRNFVQYACFGLFGIIALQTIAYSILWDLKFLMRNLALGGGLLLLLAESRSEGKSMFAGVPTMRESSPKQYMQLGGRVLLVLMFMTLLHFDASFFSIVQNIVGTALMILVAIGFKTKLAALTLVVWLFAINVYFNAFWTIPVYKPMHDFLKYDFFQTMSVIGGLLLVVALGPGGVSMDEKKKEW
notes: SURF4-3xMyc with E50, D53 and D56 changed to alanine; also called Myc-tagged SURF4^ED-AA; not shown: C-terminal 3xMyc tag
Regarding B3, the binding result in the test with ShhN^1-198-HA is reported as “binds”.
